T1: MBP-SNX17 (full-length, wild-type) (UniProt Q15036 1-470)
T1 construct: also called MBP-SNX17FL; WT; not shown: MBP, N-terminal, kept
T1 sequence (looked up): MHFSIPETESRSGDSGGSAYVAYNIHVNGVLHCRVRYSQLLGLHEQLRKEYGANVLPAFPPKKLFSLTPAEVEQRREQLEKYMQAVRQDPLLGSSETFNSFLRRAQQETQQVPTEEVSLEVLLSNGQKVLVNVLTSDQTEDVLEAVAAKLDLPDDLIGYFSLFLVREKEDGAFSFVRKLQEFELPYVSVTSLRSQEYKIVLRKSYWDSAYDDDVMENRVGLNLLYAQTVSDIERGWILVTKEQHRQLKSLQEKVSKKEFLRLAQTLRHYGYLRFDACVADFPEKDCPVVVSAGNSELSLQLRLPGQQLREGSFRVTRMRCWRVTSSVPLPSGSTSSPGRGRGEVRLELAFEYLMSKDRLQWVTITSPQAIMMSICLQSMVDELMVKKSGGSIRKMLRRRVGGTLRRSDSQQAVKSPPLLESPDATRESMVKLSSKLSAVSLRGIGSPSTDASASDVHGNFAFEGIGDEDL

T2: MBP-SNX17 L470G (UniProt Q15036 1-470, L470G)
T2 construct: not shown: MBP, N-terminal, kept
T2 sequence (looked up): T1 sequence (looked up) with L470G

T3: MBP-SNX17 N459A + F462A (UniProt Q15036 1-470, N459A | F462A)
T3 construct: not shown: MBP, N-terminal, kept
T3 sequence (looked up): T1 sequence (looked up) with N459A, F462A

B1: MBP-SNX17 W321A (natural protein)
chain: T1 sequence (looked up) with W321A
notes: not shown: MBP, N-terminal, kept
B2: MBP-SNX17 V380D (natural protein)
chain: T1 sequence (looked up) with V380D
notes: as for B1
B3: MBP-SNX17 H457A (natural protein)
chain: T1 sequence (looked up) with H457A
notes: as for B1
B4: Peptide ITGB1_(D-13mer) (peptide)
peptide: 5FAM-AVTTVVNPKYEGK
notes: also called ITGB1 distal site; source: synthetic peptide (GenScript)
B5: GST-LRP1ICD (domain or fragment, UniProt Q07954 4444-4544, looked up)
chain: YKRRVQGAKGFQHQRMTNGAMNVEIGNPTYKMYEGGEPDDVGGLLDADFALDPDKPTNFTNPVYATLYMGGHGSRHSLASTDEKRELLGRGPEDEIGDPLA
notes: not shown: GST, N-terminal, kept
B6: GST-L2FBR (domain or fragment)
chain: DPAFVTTPTKLITYDNPAYEGIDVDNTLYF
notes: as for B5
B7: Peptide LRP1_(14mer) (peptide)
peptide: 5FAM-MNVEIGNPTYKMYE
notes: source: synthetic peptide (GenScript)
B8: Peptide L2_(14mer) (peptide)
peptide: 5FAM-KLITYDNPAYEGID
notes: as for B7
B9: Peptide ITGB1_(P-14mer) (peptide)
peptide: 5FAM-KWDTGENPIYKSAV
notes: also called ITGB1 membrane-proximal site; source: synthetic peptide (GenScript)
B10: Peptide APP_(14mer) (peptide)
peptide: 5FAM-QQNGYENPTYKFFE
notes: as for B7
B11: SNX17_(FERM-CT) (amino acids 109-470) (domain or fragment)
chain: TQQVPTEEVSLEVLLSNGQKVLVNVLTSDQTEDVLEAVAAKLDLPDDLIGYFSLFLVREKEDGAFSFVRKLQEFELPYVSVTSLRSQEYKIVLRKSYWDSAYDDDVMENRVGLNLLYAQTVSDIERGWILVTKEQHRQLKSLQEKVSKKEFLRLAQTLRHYGYLRFDACVADFPEKDCPVVVSAGNSELSLQLRLPGQQLREGSFRVTRMRCWRVTSSVPLPSGSTSSPGRGRGEVRLELAFEYLMSKDRLQWVTITSPQAIMMSICLQSMVDELMVKKSGGSIRKMLRRRVGGTLRRSDSQQAVKSPPLLESPDATRESMVKLSSKLSAVSLRGIGSPSTDASASDVHGNFAFEGIGDEDL

Common to all, as to details: both partners purified
Experiment [1] concerns the target T4, Retriever complex (UniProt O14972 1-297; Q9UBQ0 1-182; Q7Z3J2 1-963). Description: pull-down.
Experiment [2] concerns the target B11. As to the kind of experiment: fluorescence polarisation. Background: Fluorescence polarisation rises when a labelled molecule tumbles more slowly, as on binding a larger partner.
The target in experiment [3] is T1, MBP-SNX17 (full-length, wild-type). As to the kind of experiment: pull-down.
Another experiment has as its target T2, MBP-SNX17 L470G. As to the kind of experiment: fluorescence polarisation.
The target in another experiment is T3, MBP-SNX17 N459A + F462A. As to the kind of experiment: fluorescence polarisation.
In the experiment “MBP-SNX17 H457A” the target is B3. As to the kind of experiment: fluorescence polarisation.
Experiment [4] deals with T4, Retriever complex. As to the kind of experiment: pull-down; GST pull-down: GST-L2FBR on glutathione agarose, Retriever together with SNX17PX, SNX17 FERM-CT or MBP-SNX17FL; VPS35L band quantified; Coomassie.

Substitutions are numbered along the chain they refer to. Where no end group is shown, it is not given here. The star is where a group is joined. 5FAM = O=C1OC2(c3ccc(O)cc3Oc3cc(O)ccc32)c2ccc(C(=O)*)cc21

For the molecule B1, the binding result in the experiment with Retriever complex [1] is listed as “binds”.

On to B2, for which the binding result in the experiment with Retriever complex [1] is reported as “binds”. Still for that read-out and setting: under B3 stands “binds”. Usually Kd stands for the equilibrium constant for the complex coming apart. A higher Kd goes with a looser complex. For the molecule B4, in experiment [2], the Kd was found to be 125 µM. In the case of B5, the binding result in experiment [3] was “binds”.

With B6, in experiment [3], the binding result was “binds”. Take B7: the binding result in the experiment with MBP-SNX17 L470G, with MBP-SNX17 N459A + F462A and in the experiment with MBP-SNX17 H457A was “binds” in each case. The Kd in experiment [2] worked out at 2.2 µM. Consider B8, for which, in the experiment with MBP-SNX17 N459A + F462A, the binding result is “binds”. In experiment [2], this molecule yielded a Kd of 0.6 µM. Molecule B9 displayed a Kd in experiment [2] of 72 µM. Same read-out and setting: under B10 stands 19 µM. B11: the binding result in the experiment with Retriever complex [4] is “binds”.

These data come from article PMC11772769, “Selective cargo and membrane recognition by SNX17 regulates its interaction with Retriever” (EMBO Reports, 2024).
